Data on two molecules can be found in patent US20060275780, “Cross-linking reagents and uses thereof” (Beckman Coulter, Inc., published 2006).

The target in series [1] is T1, FGFb (fibroblast growth factor-basic, bFGF, FGF2) (UniProt P09038 P09038:143-288). As to the kind of experiment: Ru(bpy)3 2+/APS visible-light cross-linking; urea gel and printed aptamer array with anti-FGF ELF detection; complex stable to 1N NaOH 1% SDS when cross-linked. The text has this:
bFGF photoaptamer (GCG AAG GCA CAC CGA GXX CAX AGX AXC CCA, where X=BrdU; SEQ ID NO:1) was mixed with FGFb ligand overnight to achieve maximal aptamer-ligand binding. White light-mediated photolysis of tris-bipyridylruthenium (II) complex was employed to cross-link the aptamer to the ligand in the presence of APS. The solution was then boiled in the presence of urea-SDS to dissociate bound but uncross-linked ligand from the aptamer. The mixture was subsequently applied to a urea slab gel to separate free aptamer from the cross-linked aptamer-ligand complex by electrophoresis. SYBR Gold staining was used to determine the presence of the aptamer, while double-staining with silver stain was used to determine the presence of the ligand. Referring to FIG. 1, the test sample consisted of bFGF photoaptamer and fibroblast growth factor-basic (FGFb) ligand; the control sample consisted of only bFGF photoaptamer. The test and control samples were incubated overnight prior to PICUP (photo-induced cross-linking of unmodified proteins)-like cross-linking. The samples (12 ul/each) were run on a 6% TBE-urea gel. […] Both the test and control samples were subject to denaturing conditions (100° C. for 5 minutes in TBE-urea sample buffer) prior to electrophoresis.
In FIG. 2, FGFb ligand was applied to an array of aptamers and incubated for 48 hours to achieve maximal binding. […]

In series [2] the target is T1, FGFb (fibroblast growth factor-basic, …). As to the kind of experiment: printed aptamer array; stated to bind as tightly as the BrdU aptamer; cross-linking avidity lower (curve shifted right) after 1N NaOH 1% SDS. The protocol:
FGFb bindings by bFGF photoaptamer and bFGF native aptamer (GCGAAGGCACACCGAGTTCATAGTATCCCA; SEQ ID NO:2) were compared. Referring to FIG. 3, * denotes PICUP-like cross-linking (the left two columns), while the remaining wells represent non-covalent ligand capture (the right two columns). Samples in plates 1* and 7 were treated with 1N NaOH, 1% SDS to remove the non-covalently bound ligand.
This hypothesis was tested by titrating increasing concentrations of FGFb against the two aptamers and plotting binding curves. Referring to FIG. 4, in the left panel, the two left hand side columns of each array were printed with bFGF photoaptamer, while the two right hand side columns were printed with bFGF native aptamer. The eighteen arrays in the left panel were cross-linked using a PICUP-like protocol, whereas the six arrays in the right panel represent non-covalent binding. All wells were treated with 1N NaOH, 1% SDS to strip the non-covalently bound ligand. The displacement of the bFGF native aptamer binding curve (diamonds) to the right of the bFGF photoaptamer curve (squares) confirmed that the cross-linking avidity of the bFGF native aptamer is lower than its BrdU-modified bFGF photoaptamer analog (FIG. 5).

T1 sequence (P09038 143-288, one chain of several): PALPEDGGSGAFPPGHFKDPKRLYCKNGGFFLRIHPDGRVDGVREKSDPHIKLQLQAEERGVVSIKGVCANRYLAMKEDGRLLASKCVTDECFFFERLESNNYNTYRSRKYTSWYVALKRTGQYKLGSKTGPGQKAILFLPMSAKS

B1: bFGF photoaptamer (ssDNA)
DNA: GCGAAGGCACACCGAGTTCATAGTATCCCA
modifications: BrdU at the five n positions (17, 18, 22, 25, 27), replacing T [n positions 17,18,21,24,26 = modified dU]
With B1, the binding result in series [1] is “binds”.

B2: bFGF native aptamer (ssDNA)
DNA: B1 DNA
Consider B2, for which, in series [2], the binding result is reported as “binds”.
